Laboratory results published in paper PMC5872582.

Target: L1 ORF1p-T7 (T7-tagged ORF1 protein expressed from the L1 construct pAD2TE1) (human) (UniProt Q9UN81)
Test: co-IP; 293T cells cotransfected with pAD2TE1 and the partner; lysis 48 h posttransfection in 160 mM NaCl, 50 mM Tris-HCl pH 7.5, 1 mM EDTA, […] NP-40 with RNaseOUT; ORF1p-T7 precipitated with anti-T7 monoclonal antibody on magnetic beads; immunoblot; signals normalized on T7 signal in IP and myc signal in WCL

UniProt Q9UN81, sequence (Q9UN81 whole entry): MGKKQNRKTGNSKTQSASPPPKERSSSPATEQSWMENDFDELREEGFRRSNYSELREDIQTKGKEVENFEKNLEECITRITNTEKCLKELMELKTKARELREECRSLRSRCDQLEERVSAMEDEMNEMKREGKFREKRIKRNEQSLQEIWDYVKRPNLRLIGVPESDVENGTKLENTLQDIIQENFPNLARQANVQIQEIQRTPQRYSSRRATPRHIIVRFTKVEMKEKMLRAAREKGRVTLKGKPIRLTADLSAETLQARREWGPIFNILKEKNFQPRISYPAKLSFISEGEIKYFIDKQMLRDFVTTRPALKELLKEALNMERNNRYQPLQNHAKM

Row | Substance | normalized densitometric intensity of the co-precipitated band [%]
1 | human SAMHD1 T592A, myc-tagged (from UniProt Q9Y3Z3 1-626) (natural protein) | 100
2 | human SAMHD1 T592D, myc-tagged (from UniProt Q9Y3Z3 1-626) (natural protein) | 24
